Our source for the response values is paper PMC12872393, “NCOA4 initiates ferritinophagy by avidly binding GATE16 using two short linear interaction motifs” (Life Science Alliance, 2026).

In this test the target is (GST-GATE16)2, P60520. The test is described as follows: BLI. The settings on record: chain shown with the change; 5 µM (GST-GATE16)2; NCOA4 construct immobilized to the probe; parent: est. 0.105; read off a plot.
(GST-GATE16)2, P60520, sequence (P60520 whole entry): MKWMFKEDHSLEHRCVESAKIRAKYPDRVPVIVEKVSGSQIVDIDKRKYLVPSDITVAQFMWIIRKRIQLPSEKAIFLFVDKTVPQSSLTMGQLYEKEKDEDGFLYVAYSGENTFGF

B1: biotinylated AviTag-His6-NCOA4^383−522-MBP, Q13772 486F:A (protein)
chain: SMVTEDWLVQNHQDPCKVEEVCRANEPCTSFAECVCDENCEKEALYKWLLKKEGKDKNGMPVEPKPEPEKHKDSLNMWLCPRKEVIEQTKAPKAMTPSRIADSAQVIKNSPLSEWLIRPPYKEGSPKEVPGTEDRAGKQK
B1: the response was 0.026 nm.

B2: biotinylated AviTag-His6-NCOA4^383−522-MBP, Q13772 413F:A (protein)
chain: SMVTEDWLVQNHQDPCKVEEVCRANEPCTSAAECVCDENCEKEALYKWLLKKEGKDKNGMPVEPKPEPEKHKDSLNMWLCPRKEVIEQTKAPKAMTPSRIADSFQVIKNSPLSEWLIRPPYKEGSPKEVPGTEDRAGKQK
As for B2, the response was determined as 0.056 nm.
